Measured values published in patent US20140363432A1.

Key:
[1] = target: recombinant hVEGF (165 amino acids) (human) (UniProt P15692); test: cell-based or functional assay
[2] = target: recombinant hVEGF (165 amino acids) (human) (UniProt P15692); test: 125I-hVEGF binding to bovine ACE cells with antibody (FIG. 3b); conditions: scale: molar ratio of antibody to hVEGF
[3] = target: recombinant hVEGF (165 amino acids) (human) (UniProt P15692); test: competitive binding of 125I-hVEGF against unlabeled hVEGF, immune complexes precipitated, Scatchard analysis

Chain of UniProt P15692 (P15692 other isoform, or with tags, fused parts or gaps): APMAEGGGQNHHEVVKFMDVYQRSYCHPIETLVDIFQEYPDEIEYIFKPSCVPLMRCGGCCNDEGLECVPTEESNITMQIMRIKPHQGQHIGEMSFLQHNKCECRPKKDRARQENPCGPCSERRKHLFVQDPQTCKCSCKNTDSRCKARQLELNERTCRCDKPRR

Q: “anti-hVEGF monoclonal antibody produced by the A4.6.1 hybridoma” was tested. Which inhibition of hVEGF mitogenic activity on bovine ACE cells [1] did it give?
A: The inhibition of hVEGF mitogenic activity on bovine ACE cells was greater than 90 % inhibition.

Q: And the molar ratio of hVEGF to antibody at complete inhibition of hVEGF binding to bovine ACE cells [2]?
A: The molar ratio of hVEGF to antibody at complete inhibition of hVEGF binding to bovine ACE cells was 250.

Q: What about the Ka [3] of the same substance?
A: Its Ka is 1.2e+09 M⁻¹.
